The target in assay [1] is CMV gp116 epitope AD2 site peptide … (CMV (human cytomegalovirus)). Briefly: kinetic affinity measurement, method not stated; antigen taken as AD2 peptide; same value as r7, table re-sorted by koff.
The target of assay [2] is GPCMV gB (glycoprotein B of guinea pig CMV strain V545/82) (guinea pig cytomegalovirus). Kind of assay: cell-based or functional assay.
The target of assay [3] is CMV gp116 epitope AD2 site peptide … (CMV (human cytomegalovirus)). Briefly: kinetic affinity measurement, method not stated; antigen taken as CMV gp116 AD2 peptide.

As for ITC88 control antibody, in assay [1], the Kd came to 1.51 nM, the koff worked out at 0.00116 s⁻¹ and the kon amounted to 767000 M⁻¹ s⁻¹. This substance also showed a neutralization of GPCMV V545/82 entry into JH4 cells; highest concentration tested without effect in assay [2] above 300 ng/mL. For the same substance, in assay [3], the Kd was 1.51 nM, the off-rate (koff) was found to be 0.00116 s⁻¹ and the kon is 767000 M⁻¹ s⁻¹.

Broadly, the Kd is the equilibrium constant for the complex coming apart. Read a high Kd as weaker binding. As usually defined, the koff is a measure of how fast the partners let go of each other. High values mean a short-lived complex, low ones a long-lived complex. Broadly, the kon is the rate constant with which the complex forms.

These data come from US20150152166A1.
